The numbers were not newly measured in PMC6189303, which cites them from elsewhere.

The target in the data set is L1-CAM (UniProt P32004).

pKd: −log10 of the molar value.

Sequence of UniProt P32004 (P32004 20-1120): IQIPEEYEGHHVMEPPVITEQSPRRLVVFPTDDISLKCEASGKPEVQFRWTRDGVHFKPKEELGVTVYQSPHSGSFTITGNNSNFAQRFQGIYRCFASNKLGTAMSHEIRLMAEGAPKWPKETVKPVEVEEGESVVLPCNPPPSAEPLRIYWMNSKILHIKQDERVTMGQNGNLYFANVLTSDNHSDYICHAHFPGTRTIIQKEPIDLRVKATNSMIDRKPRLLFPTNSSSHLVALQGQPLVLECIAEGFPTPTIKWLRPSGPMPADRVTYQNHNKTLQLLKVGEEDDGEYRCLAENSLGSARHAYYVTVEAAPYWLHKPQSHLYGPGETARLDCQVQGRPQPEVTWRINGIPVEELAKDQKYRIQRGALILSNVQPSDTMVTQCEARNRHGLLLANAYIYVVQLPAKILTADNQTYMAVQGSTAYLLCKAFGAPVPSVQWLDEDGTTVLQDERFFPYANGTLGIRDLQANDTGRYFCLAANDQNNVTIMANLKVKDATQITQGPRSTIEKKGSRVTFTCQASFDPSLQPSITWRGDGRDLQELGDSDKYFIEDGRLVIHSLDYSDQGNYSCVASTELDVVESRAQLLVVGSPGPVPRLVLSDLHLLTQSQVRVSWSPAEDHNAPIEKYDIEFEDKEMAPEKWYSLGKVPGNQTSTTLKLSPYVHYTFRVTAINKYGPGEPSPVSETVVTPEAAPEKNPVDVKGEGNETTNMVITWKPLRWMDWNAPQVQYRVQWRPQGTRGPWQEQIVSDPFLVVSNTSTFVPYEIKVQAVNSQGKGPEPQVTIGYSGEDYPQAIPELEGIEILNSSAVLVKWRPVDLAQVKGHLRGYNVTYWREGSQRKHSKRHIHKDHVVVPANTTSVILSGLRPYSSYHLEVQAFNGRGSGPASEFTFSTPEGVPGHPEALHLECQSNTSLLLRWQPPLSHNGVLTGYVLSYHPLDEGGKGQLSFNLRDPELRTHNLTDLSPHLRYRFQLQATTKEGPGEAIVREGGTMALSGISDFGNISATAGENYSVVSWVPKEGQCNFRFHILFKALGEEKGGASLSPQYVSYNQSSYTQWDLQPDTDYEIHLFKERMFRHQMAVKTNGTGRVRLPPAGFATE

For the substance Neurocan (from UniProt O14594), the pKd – broadly, the negative decadic logarithm of the Kd, by convention in mol/L – is 9.00.
